Values quoted from earlier work as cited in patent US20190382746.

What was measured:
[1] = system: RSG1.2 peptide (synthetic); conditions: CITED? source not stated; cited from earlier work
[2] = system: PP7 coat protein (Pseudomonas phage PP7); conditions: CITED? source not stated; cited from earlier work

Row | Substance | Kd [1] [nM] | Kd [2] [nM]
1 | RSG1.2 aptamer (HIV RRE, 34 nt) | 6 | –
2 | PP7 aptamer (25 nt) | – | 2
